Reference: PMC6269424

Details: O-GlcNAc at T84

Substance | expression_or_secretion
PPARγ2: T84A | decreases
PPARγ2: adipocyte-specific OGT knockout (FKO) | decreases
